The source of these data is patent publication US20240366776A1 (Hoffmann-La Roche, published 2024).

Positions count from the first letter of the chain named.

In assay [1] the target is T1, biotinylated IL-2 receptor beta gamma heterodimer Fc (IL-2RBG; Acro ILG-H5254) (UniProt P14784 27-239; P31785 23-262, biotinylated).
T1 construct: bought heterodimer
T1 sequence (looked up) 1: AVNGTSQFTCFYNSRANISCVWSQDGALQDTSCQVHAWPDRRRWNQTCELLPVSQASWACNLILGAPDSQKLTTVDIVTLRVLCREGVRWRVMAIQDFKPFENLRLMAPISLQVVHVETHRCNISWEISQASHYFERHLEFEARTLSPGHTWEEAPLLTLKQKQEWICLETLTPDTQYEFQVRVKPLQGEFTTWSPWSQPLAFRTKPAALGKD
T1 sequence (looked up) 2: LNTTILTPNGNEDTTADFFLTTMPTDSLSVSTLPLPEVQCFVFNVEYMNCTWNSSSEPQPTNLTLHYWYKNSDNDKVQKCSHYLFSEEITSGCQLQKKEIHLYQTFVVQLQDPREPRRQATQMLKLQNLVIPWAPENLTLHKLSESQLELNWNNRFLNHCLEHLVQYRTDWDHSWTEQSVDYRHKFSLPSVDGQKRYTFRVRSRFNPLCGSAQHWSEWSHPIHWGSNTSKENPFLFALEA
Description: ELISA, captured complex, biotin-IL-2RBG 10 nM, PD-1 Fc titrated. The method, then:
The DBA-cytokine complexes and control antibody-cytokine complexes were produced in two formats: (1) “Symmetric” immunocytokine (shown in FIG. 2E); or (2) “Asymmetric” immunocytokine (shown in FIG. 2B) by expression in mammalian cells and purified using standard protocols. […] To perform the assay, 384-well ELISA plates were coated with anti-Fc antibody at 1 micrograms/ml in 100 mM bicarbonate solution pH 9.0 overnight at 4° C. and washed twice with SUPERBLOCK™. Antibody-cytokine complexes were then added to each well at a constant concentration of 6 nM and allowed to incubate for 1 hour and washed three times in PBS plus 0.05% TWEEN® 20 (PBST). Titrated concentrations of PD-1 Fc or an IgG1 control Fc were added and allowed to incubate for 15 minutes before the addition of a constant amount of biotinylated IL-2RBG at 10 nM. The plates were incubated for an additional 30 minutes, washed and biotinylated IL-2RBG detection was performed using streptavidin-HRP and standard ELISA protocols.

Assay [2] deals with PD-1-Fc (UniProt Q15116 25-167, limits assumed). Kind of assay: cell-based or functional assay.
PD-1-Fc, sequence (Q15116 25-167 limits assumed): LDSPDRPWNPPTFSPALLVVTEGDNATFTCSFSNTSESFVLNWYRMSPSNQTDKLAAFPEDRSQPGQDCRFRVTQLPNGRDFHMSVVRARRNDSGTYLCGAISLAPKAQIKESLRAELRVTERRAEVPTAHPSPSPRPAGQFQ

B1: AF003953 (other)
heavy 1: APASSSTKKTQLQLEHLLLDLQMILNGINNYKNPKLTRMLTAKFAMPKKATELKHLQCLEEELKPLEEVLNGAQSKNFHLRPRDLISNINVIVLELKGSETTFMCEYADETATIVEFLNRWITFAQSIISTLTGGGGSGGGGSGGGGSGGGGSQVQLVQSGAEVKKPGASVKVSCKASGYTFTTYYMHWVRQAPGQGLEWMGIINPRAGYTSYALKFQGRVTMTRDTSTSTVYMELSSLRSEDTAVYYCTSGWDVWGQGTLVTVSSAKTTAPSVYPLAPVCGDTTGSSVTLGCLVKGYFPEPVTLTWNSGSLSSGVHTFPAVLQSDLYTLSSSVTVTSSTWPSQSITCNVAHPASSTKVDKKIEPRGPTIKPCPPCKCPAPNAAGGPSVFIFPPKIKDVLMISLSPIVTCVVVDVSEDDPDVQISWFVNNVEVHTAQTQTHREDYNSTLRVVSALPIQHQDWMSGKEFKCKVNNKDLGAPIERTISKPKGSVRAPQVYVLPPPEEEMTKKQVTLTCMVTDFMPEDIYVEWTNNGKTELNYKNTEPVLDSDGSYFMYSDLRVEKKNWVERNSYSCSVVHEGLHNHHTTESFSRTPGK
heavy 2: QVQLVQSGAEVKKPGASVKVSCKASGYTFTTYYMHWVRQAPGQGLEWMGIINPRAGYTSYALKFQGRVTMTRDTSTSTVYMELSSLRSEDTAVYYCTSGWDVWGQGTLVTVSSAKTTAPSVYPLAPVCGDTTGSSVTLGCLVKGYFPEPVTLTWNSGSLSSGVHTFPAVLQSDLYTLSSSVTVTSSTWPSQSITCNVAHPASSTKVDKKIEPRGPTIKPCPPCKCPAPNAAGGPSVFIFPPKIKDVLMISLSPIVTCVVVDVSEDDPDVQISWFVNNVEVHTAQTQTHREDYNSTLRVVSALPIQHQDWMSGKEFKCKVNNKDLGAPIERTISKPKGSVRAPQVYVLPPPEKEMTKKQVSLTCLVKDFMPEDIYVEWTNNGKTELNYKNTEPVLKSDGSYFMYSKLTVEKKNWVERNSYSCSVVHEGLHNHHTTKSFSRTPGGGGSGGGSHHHHHH
light: DIQMTQSPSSLSASVGDRVTITCRASQSISTWLAWYQQKPGKAPKLLIYAASSLDSGVPSRFSGSGSGTDFTLTISSLQPEDFATYYCQQSYSFPVTFGQGTKVEIKRADAAPTVSIFPPSSEQLTSGGASVVCFLNNFYPKDINVKWKIDGSERQNGVLNSWTDQDSKDSTYSMSSTLTLTKDEYERHNSYTCEATHKTSTSPIVKSFNRNEC
notes: also called AF3953
B1: the binding result in assay [1] is “binds”.

B2: AF003955 (other)
heavy 1: APASSSTKKTQLQLEHLLLDLQMILNGINNYKNPKLTRMLTAKFAMPKKATELKHLQCLEEELKPLEEVLNGAQSKNFHLRPRDLISNINVIVLELKGSETTFMCEYADETATIVEFLNRWITFAQSIISTLTGGGGSGGGGSGGGGSGGGGSQVQLVQSGAEVKKPGASVKVSCKASGHTFTRYYMHWVRQAPGQGLEWMGIINPSGGYATYAQKFQGRVTMTRDTSTSTVYMELSSLRSEDTAVYYCASGLFIWGQGTLVTVSSAKTTAPSVYPLAPVCGDTTGSSVTLGCLVKGYFPEPVTLTWNSGSLSSGVHTFPAVLQSDLYTLSSSVTVTSSTWPSQSITCNVAHPASSTKVDKKIEPRGPTIKPCPPCKCPAPNAAGGPSVFIFPPKIKDVLMISLSPIVTCVVVDVSEDDPDVQISWFVNNVEVHTAQTQTHREDYNSTLRVVSALPIQHQDWMSGKEFKCKVNNKDLGAPIERTISKPKGSVRAPQVYVLPPPEEEMTKKQVTLTCMVTDFMPEDIYVEWTNNGKTELNYKNTEPVLDSDGSYFMYSDLRVEKKNWVERNSYSCSVVHEGLHNHHTTESFSRTPGK
heavy 2: QVQLVQSGAEVKKPGASVKVSCKASGHTFTRYYMHWVRQAPGQGLEWMGIINPSGGYATYAQKFQGRVTMTRDTSTSTVYMELSSLRSEDTAVYYCASGLFIWGQGTLVTVSSAKTTAPSVYPLAPVCGDTTGSSVTLGCLVKGYFPEPVTLTWNSGSLSSGVHTFPAVLQSDLYTLSSSVTVTSSTWPSQSITCNVAHPASSTKVDKKIEPRGPTIKPCPPCKCPAPNAAGGPSVFIFPPKIKDVLMISLSPIVTCVVVDVSEDDPDVQISWFVNNVEVHTAQTQTHREDYNSTLRVVSALPIQHQDWMSGKEFKCKVNNKDLGAPIERTISKPKGSVRAPQVYVLPPPEKEMTKKQVSLTCLVKDFMPEDIYVEWTNNGKTELNYKNTEPVLKSDGSYFMYSKLTVEKKNWVERNSYSCSVVHEGLHNHHTTKSFSRTPGGGGSGGGSHHHHHH
light: B1 light with S30N, T31S, A51T, S53T, D55E, S91Y, S93R
notes: also called AF3955
Turning to B2, the binding result in assay [1] was “binds”.

B3: AF003956 (other)
heavy 1: B1 heavy 1 with T184D
heavy 2: B1 heavy 2 with T31D
light: B1 light with S93R
notes: also called AF3956
For the molecule B3, the binding result in assay [1] was “binds”.

B4: AF4403 (other)
heavy 1: QVQLVESGGGVVQPGRSLRLDCKASGITFSNSGMHWVRQAPGKGLEWVAVIWYDGSKRYYADSVKGRFTISRDNSKNTLFLQMNSLRAEDTAVYYCATNDDYWGQGTLVTVSSAKTTAPSVYPLAPVCGDTTGSSVTLGCLVKGYFPEPVTLTWNSGSLSSGVHTFPAVLQSDLYTLSSSVTVTSSTWPSQSITCNVAHPASSTKVDKKIEPRGPTIKPCPPCKCPAPNAAGGPSVFIFPPKIKDVLMISLSPIVTCVVVDVSEDDPDVQISWFVNNVEVHTAQTQTHREDYNSTLRVVSALPIQHQDWMSGKEFKCKVNNKDLGAPIERTISKPKGSVRAPQVYVLPPPEEEMTKKQVTLTCMVTDFMPEDIYVEWTNNGKTELNYKNTEPVLDSDGSYFMYSDLRVEKKNWVERNSYSCSVVHEGLHNHHTTESFSRTPGGGGGSGGGGSGGGGSAPTSSSTKKTQLQLEHLLLDLQMILNGINNYKNPKLTDMLTFEFYMPKKATELKHLQCLERELKPLEEVLNLAQSKNFHLRPRDLISNINVIVLELKGSETTFMCEYADETATIVEFLNRWITFCQSIISTLT
heavy 2: QVQLVESGGGVVQPGRSLRLDCKASGITFSNSGMHWVRQAPGKGLEWVAVIWYDGSKRYYADSVKGRFTISRDNSKNTLFLQMNSLRAEDTAVYYCATNDDYWGQGTLVTVSSAKTTAPSVYPLAPVCGDTTGSSVTLGCLVKGYFPEPVTLTWNSGSLSSGVHTFPAVLQSDLYTLSSSVTVTSSTWPSQSITCNVAHPASSTKVDKKIEPRGPTIKPCPPCKCPAPNAAGGPSVFIFPPKIKDVLMISLSPIVTCVVVDVSEDDPDVQISWFVNNVEVHTAQTQTHREDYNSTLRVVSALPIQHQDWMSGKEFKCKVNNKDLGAPIERTISKPKGSVRAPQVYVLPPPEKEMTKKQVSLTCLVKDFMPEDIYVEWTNNGKTELNYKNTEPVLKSDGSYFMYSKLTVEKKNWVERNSYSCSVVHEGLHNHHTTKSFSRTPGGGGGSGGGGSGGGGSGGGGSQVQLVQSGAEVKKPGASVKVSCKASGDTFTRYYVHWVRQAPGQGLEWMGIINPSGGYASYAQKFQGRVTMTRDTSTSTVYMELSSLRSEDTAVYYCAAGLFIWGQGTLVTVSSASGGGGSGGGGSGGGGSHASDIQMTQSPSSLSASVGDRVTITCRASQSIGRYLAWYQQKPGKAPKLLIYSASNLETGVPSRFSGSGSGTDFTLTISSLQPEDFATYYCQQYNSFPVTFGPGTKVDIKGGGSGGGSHHHHHH
light: EIVLTQSPATLSLSPGERATLSCRASQSVSSYLAWYQQKPGQAPRLLIYDASNRATGIPARFSGSGSGTDFTLTISSLEPEDFAVYYCQQSSNWPRTFGQGTKVEIKRADAAPTVSIFPPSSEQLTSGGASVVCFLNNFYPKDINVKWKIDGSERQNGVLNSWTDQDSKDSTYSMSSTLTLTKDEYERHNSYTCEATHKTSTSPIVKSFNRNEC
Consider B4, for which, in assay [2], the “IL-2 activity EC50, HEK-Blue IL-2 reporter cells, PD-1 coated wells” value amounted to 0.031 nM and the “IL-2 activity EC50, HEK-Blue IL-2 reporter cells, control wells” value turned out to be 0.062 nM.

B5: AF4379 (other)
heavy: APTSSSTKKTQLQLEHLLLDLQMILNGINNYKNPKLTDMLTFEFYMPKKATELKHLQCLERELKPLEEVLNLAQSKNFHLRPRDLISNINVIVLELKGSETTFMCEYADETATIVEFLNRWITFCQSIISTLTGGGGSGGGGSGGGGSGGGGSQVQLVQSGAEVKKPGASVKVSCKASGDTFTRYYVHWVRQAPGQGLEWMGIINPSGGYASYAQKFQGRVTMTRDTSTSTVYMELSSLRSEDTAVYYCAAGLFIWGQGTLVTVSSAKTTAPSVYPLAPVCGDTTGSSVTLGCLVKGYFPEPVTLTWNSGSLSSGVHTFPAVLQSDLYTLSSSVTVTSSTWPSQSITCNVAHPASSTKVDKKIEPRGPTIKPCPPCKCPAPNAAGGPSVFIFPPKIKDVLMISLSPIVTCVVVDVSEDDPDVQISWFVNNVEVHTAQTQTHREDYNSTLRVVSALPIQHQDWMSGKEFKCKVNNKDLGAPIERTISKPKGSVRAPQVYVLPPPEEEMTKKQVTLTCMVTDFMPEDIYVEWTNNGKTELNYKNTEPVLDSDGSYFMYSKLRVEKKNWVERNSYSCSVVHEGLHNHHTTKSFSRTPGK
light: DIQMTQSPSSLSASVGDRVTITCRASQSIGRYLAWYQQKPGKAPKLLIYSASNLETGVPSRFSGSGSGTDFTLTISSLQPEDFATYYCQQYNSFPVTFGPGTKVDIKRADAAPTVSIFPPSSEQLTSGGASVVCFLNNFYPKDINVKWKIDGSERQNGVLNSWTDQDSKDSTYSMSSTLTLTKDEYERHNSYTCEATHKTSTSPIVKSFNRNEC
As for B5, in assay [2], the “IL-2 activity EC50, HEK-Blue IL-2 reporter cells, IgG1 coated wells (control)” value came to 0.062 nM and the “IL-2 activity EC50, HEK-Blue IL-2 reporter cells, PD-1 coated wells” value was found to be 0.031 nM.
